These results are taken from US20230035403A1 (Janssen / Centocor, published 2023).

Common to all, as to assay: UV-induced peptide exchange, HLA class I ELISA; Pos peptide = 100%;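 further: Streptavidin-captured biotinylated HLA class I complexes detected by HRP-conjugated anti-human B2M antibody, absorbance readout of intact complex amount after exchange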
In general terms: ELISA stands for enzyme-linked immunosorbent assay.

The target of assay [1] is T1, HLA-A*03:01 (human, biotinylated heavy chain).
T1 construct: Conditional HLA class I complex whose UV-labile peptide is exchanged for the test peptide

The target in assay [2] is T2, HLA-A*24:02 (human, biotinylated heavy chain).
T2 construct: Conditional HLA class I complex whose UV-labile peptide is exchanged for the test peptide

The target of assay [3] is T3, HLA-A*01:01 (human, biotinylated heavy chain).
T3 construct: Conditional HLA class I complex whose UV-labile peptide is exchanged for the test peptide

In assay [4] the target is T4, HLA-B*07:02 (human, biotinylated heavy chain).
T4 construct: Conditional HLA class I complex whose UV-labile peptide is exchanged for the test peptide

Assay [5] concerns the target T5, HLA-A*02:01 (human, biotinylated heavy chain).
T5 construct: Conditional HLA class I complex whose UV-labile peptide is exchanged for the test peptide

B1: P77 9-mer FFKRAAEGF (peptide)
peptide: FFKRAAEGF
notes: 9-mer fragment of neoantigen P77 (AR-V3); synthetic peptide
Consider B1, for which the “exchange rate with Pos peptide” value in assay [1] was determined as 2.8%; in assay [2] it was 1.7%; in assay [3], 1.9%; in assay [4] it was 14.2%.

B2: P35 9-mer NSKMALNSL (peptide)
peptide: NSKMALNSL
notes: 9-mer fragment of neoantigen P35; synthetic peptide
As to B2, the “exchange rate with Pos peptide” value worked out at 4.2% in assay [1]; 12.5% in assay [5]; 0.2% in assay [2]; 2.5% in assay [3]; 12.1% in assay [4].

B3: P27 9-mer FPVGAEGTF (peptide)
peptide: FPVGAEGTF
notes: 9-mer fragment of neoantigen P27; synthetic peptide
Turning to B3, the “exchange rate with Pos peptide” value is 4.5% in assay [1]; 10% in assay [5]; 0.7% in assay [2]; 4.8% in assay [3]; 7.8% in assay [4].

B4: P50 9-mer IQYSCMGLM (peptide)
peptide: IQYSCMGLM
notes: 9-mer fragment of neoantigen P50; synthetic peptide
With B4, the “exchange rate with Pos peptide” value in assay [1] was found to be 5.5%; in assay [5] it was 8.8%; in assay [2], 0.1%; in assay [3], 2.3%; in assay [4] it was 10.4%.

B5: P59 9-mer NMVENGCYL (peptide)
peptide: NMVENGCYL
notes: 9-mer fragment of neoantigen P59; synthetic peptide
Consider B5, for which the “exchange rate with Pos peptide” value in assay [1] was 4.5%; in assay [5] it was 11.9%; in assay [2], -0.5%; in assay [3] it was 2.2%; in assay [4] it was 7.5%.

B6: P16 9-mer STRRAVRRM (peptide)
peptide: STRRAVRRM
notes: 9-mer fragment of neoantigen P16 (MSMB-NCOA4 fusion); synthetic peptide
In the case of B6, the “exchange rate with Pos peptide” value in assay [1] came out at 6.1%; in assay [5], 10.4%; in assay [2], 0.8%; in assay [3], 5.5%; in assay [4], 13.7%.

B7: P37 9-mer GVLRRLLCR (peptide)
peptide: GVLRRLLCR
notes: 9-mer fragment of neoantigen P37; synthetic peptide
Consider B7, for which the “exchange rate with Pos peptide” value was 6.4% in assay [1], 12.5% in assay [5], -0.1% in assay [2] and 1.4% in assay [3].
